According to paper doi:10.1101/2024.08.22.609182 (bioRxiv, 2024):

Assays:
[1] = molecular target: adenylate kinase 2 (AK2), recombinant human (human, UniProt P54819 1-239); assay: SEC
[2] = molecular target: the molecule itself; assay: SEC

B1: AIFM1 ΔR201 (disease-related variant) (domain or fragment)
chain: LGLTPEQKQKKAALSASEGEEVPQDKAPSHVPFLLIGGGTAAFAAARSIRARDPGARVLIVSEDPELPYMRPPLSKELWFSDDPNVTKTLRFKQWNGKESIYFQPPSFYVSAQDLPHIENGGVAVLTGKKVVQLDVRDNMVKLNDGSQITYEKCLIATGGTPRSLSAIDRAGAEVKSRTTLFRKIGDFRSLEKISREVKSITIIGGGFLGSELACALGRKARALGTEVIQLFPEKGNMGKILPEYLSNWTMEKVRREGVKVMPNAIVQSVGVSSGKLLIKLKDGRKVETDHIVAAVGLEPNVELAKTGGLEIDSDFGGFRVNAELQARSNIWVAGDAACFYDIKLGRRRVEHHDHAVVSGRLAGENMTGAAKPYWHQSMFWSDLGPDVGYEAIGLVDSSLPTVGVFAKATAQDNPKSATEQSGTGIRSESETESEASEITIPPSTPAVPQAPVQGEDYGKGVIFYLRDKVVVGIVLWNIFNRMPIARKIIKDGEQHEDLNEVAKLFNIHED
[1]
  binding result: binds
[2]
  stoichiometry N: 2
